From the Human Domainome abundance scans (Beltran et al. 2025)
± gives the uncertainty stated by the source.

B1: Chromodomain-helicase-DNA-binding protein 4, residues 365 to 417; numbered along this chain, Q14839 (parent)
chain: YETDHQDYCEVCQQGGEIILCDTCPRAYHMVCLDPDMEKAPEGKWSCPHCEKE

Variants of: B1
Assay: abundance fitness (aPCA) (normalised: wild type 0, dead -1); higher = more abundant; growth selection in yeast, the domain comes from the species named
Settings: Homo sapiens

Variant	abundance fitness
G15D	0.176 ± 0.14
G15W	-0.216 ± 0.14
G15E	-0.162 ± 0.12
G15R	0.075 ± 0.095
G15Q	-0.046 ± 0.17
G15F	-0.178 ± 0.21
G15Y	-0.571 ± 0.23
G15N	-0.328 ± 0.3
G15T	-0.003 ± 0.14
G15A	-0.028 ± 0.12
Q14E	0.223 ± 0.28
Q14C	-0.337 ± 0.12
Q14G	-0.013 ± 0.11
Q14L	-0.347 ± 0.11
Q14P	-0.826 ± 0.19
Q14K	0.002 ± 0.16
Q14H	-0.23 ± 0.26
Q14F	0.06 ± 0.14
Q14I	-0.084 ± 0.15
Q14A	-0.307 ± 0.17
Q14Y	-0.338 ± 0.23
Q14W	-0.342 ± 0.13
Q14R	0.162 ± 0.083
Q14S	-0.239 ± 0.095

Variant	abundance fitness
Q14N	-0.362 ± 0.16
C12N	-0.605 ± 0.28
C12D	-0.944 ± 0.28
C12Y	-1.07 ± 0.15
C12V	-0.887 ± 0.1
C12M	-0.643 ± 0.14
C12E	-0.683 ± 0.12
C12G	-0.799 ± 0.1
C12S	-0.977 ± 0.12
C12R	-0.87 ± 0.1
C12I	-0.342 ± 0.23
C12F	-0.529 ± 0.37
C12T	-0.46 ± 0.13
C12Q	-0.49 ± 0.27
C12L	-0.962 ± 0.11
C12A	-0.952 ± 0.13
C12W	-0.948 ± 0.13
C12K	-0.775 ± 0.17
C12H	-0.948 ± 0.45
A27W	-0.257 ± 0.13
A27N	-0.165 ± 0.16
A27E	-0.672 ± 0.14
A27P	-0.262 ± 0.17
A27Y	0.086 ± 0.15

Variant	abundance fitness
A27L	-0.15 ± 0.094
A27D	-0.545 ± 0.2
A27K	-0.238 ± 0.18
A27Q	-0.424 ± 0.16
A27G	-0.162 ± 0.099
A27C	-0.02 ± 0.2
A27F	-0.172 ± 0.17
A27H	-0.276 ± 0.18
A27S	-0.088 ± 0.13
A27I	-0.421 ± 0.14
A27T	-0.094 ± 0.12
A27V	-0.077 ± 0.1
Q13V	-0.018 ± 0.1
Q13M	0.156 ± 0.15
Q13D	0.12 ± 0.33
Q13H	-0.135 ± 0.18
Q13N	0.255 ± 0.16
Q13Y	-0.117 ± 0.18
Q13S	0.008 ± 0.11
Q13P	-0.702 ± 0.17
Q13I	-0.208 ± 0.24
Q13C	-0.045 ± 0.14
Q13T	-0.015 ± 0.14
Q13A	0.206 ± 0.12

Variant	abundance fitness
Q13W	-0.255 ± 0.12
Q13L	-0.091 ± 0.11
Q13E	-0.036 ± 0.13
Q13F	-0.063 ± 0.23
Q13K	-0.474 ± 0.18
Q13G	0.037 ± 0.09
L20H	0.143 ± 0.17
L20E	0.01 ± 0.12
L20W	-0.146 ± 0.12
L20N	-0.083 ± 0.14
L20D	0.178 ± 0.12
L20I	0.023 ± 0.15
L20P	0.149 ± 0.12
L20C	-0.045 ± 0.12
L20F	-0.096 ± 0.17
L20S	-0.013 ± 0.096
L20T	0.036 ± 0.13
L20M	-0.011 ± 0.14
L20Q	-0.022 ± 0.18
L20A	0.08 ± 0.1
L20R	0.113 ± 0.089
L20V	-0.028 ± 0.1
L20Y	-0.179 ± 0.2
D22G	-0.021 ± 0.09

Variant	abundance fitness
D22V	-0.065 ± 0.11
D22I	0.03 ± 0.2
D22F	-0.129 ± 0.19
D22Y	-0.42 ± 0.23
D22Q	0.083 ± 0.21
D22A	0.056 ± 0.098
D22H	-0.528 ± 0.28
D22N	-0.101 ± 0.14
D22T	0.089 ± 0.12
D22P	-0.721 ± 0.26
D22W	-0.219 ± 0.14
D22L	-0.34 ± 0.13
D22S	-0.272 ± 0.12
V11W	-0.019 ± 0.12
V11T	0.195 ± 0.13
V11P	-0.257 ± 0.15
V11S	-0.085 ± 0.1
V11Q	-0.268 ± 0.18
V11Y	0.008 ± 0.14
T23P	-0.922 ± 0.23
T23F	-0.099 ± 0.15
T23R	-0.363 ± 0.11
T23V	-0.231 ± 0.12
T23K	-0.219 ± 0.2

Variant	abundance fitness
T23L	-0.107 ± 0.12
T23C	-0.257 ± 0.13
T23N	-0.201 ± 0.24
T23Q	-0.107 ± 0.18
T23S	0.033 ± 0.12
T23A	-0.459 ± 0.13
T23H	0.312 ± 0.2
T23Y	-0.296 ± 0.18
T23W	-0.327 ± 0.17
T23G	-0.189 ± 0.098
T23I	-0.236 ± 0.14
T23D	-0.052 ± 0.14
T23M	-0.297 ± 0.18
C24A	-1.1 ± 0.15
C24V	-0.99 ± 0.13
C24P	-0.652 ± 0.17
C24Q	-1.15 ± 0.28
C24D	-0.647 ± 0.2
C24W	-0.901 ± 0.16
C24S	-0.681 ± 0.15
C24Y	-1.31 ± 0.25
C24F	-0.882 ± 0.27
C24T	-0.768 ± 0.21
C24R	-0.775 ± 0.11

Variant	abundance fitness
C24G	-0.695 ± 0.1
C24I	-1.18 ± 0.36
C24N	-0.401 ± 0.22
C24E	-0.822 ± 0.17
C24L	-1.19 ± 0.16
C24M	-0.751 ± 0.15
C21A	-0.882 ± 0.14
C21I	-0.802 ± 0.36
C21D	-0.657 ± 0.21
C21M	-0.911 ± 0.17
C21K	-0.734 ± 0.17
C21T	-0.467 ± 0.19
C21L	-1.06 ± 0.15
C21Y	-0.765 ± 0.23
C21W	-0.738 ± 0.14
C21N	-0.983 ± 0.27
C21F	-1.11 ± 0.26
C21V	-0.877 ± 0.13
C21R	-0.743 ± 0.13
C21S	-0.889 ± 0.17
C21P	-1.11 ± 0.24
C21E	-0.893 ± 0.19
C21Q	-0.468 ± 0.27
